Values belong to the binder of their own block, whether it stands above or below them.
Assays:
[1] = biological target: cytochrome c endogenous in human cells (HeLa, IMR-90) (Homo sapiens, UniProt P99999); experiment: immunostaining of cells or tissue
[2] = biological target: cytochrome c endogenous in bovine aortic endothelial cells (Bos taurus, UniProt P62894); experiment: immunostaining of cells or tissue
[3] = biological target: T1, cytochrome c endogenous in mouse melanoma B16-F1 cells (Mus musculus, UniProt P62897); experiment: immunostaining of cells or tissue
T1 sequence (P62897 whole entry): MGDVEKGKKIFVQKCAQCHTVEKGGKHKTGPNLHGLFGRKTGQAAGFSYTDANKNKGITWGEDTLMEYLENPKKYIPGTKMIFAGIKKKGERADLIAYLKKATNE

[4] = biological target: cytochrome c endogenous in Vero cells (Chlorocebus (African green monkey), …, UniProt G4XXN2); experiment: immunostaining of cells or tissue
[5] = biological target: T1, cytochrome c endogenous in mouse …; experiment: flow cytometry on cells
[6] = biological target: 1–65 CNBr-cleaved peptide of cytochrome c (Equus caballus (assumed), UniProt P00004); experiment: ELISA
1–65 CNBr-cleaved peptide of cytochrome c, sequence (P00004 2-66): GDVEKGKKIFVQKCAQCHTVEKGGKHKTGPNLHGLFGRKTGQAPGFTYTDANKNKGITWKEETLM

cytochrome c endogenous in human cells (HeLa, IMR-90), sequence (P99999 whole entry): as the sequence (P62897 whole entry) above, with V12I, Q13M, A16S, A45P, F47Y, D51A, T59I, A84V, G90E counted along it
cytochrome c endogenous in bovine aortic endothelial cells, sequence (P62894 whole entry): as the sequence (P62897 whole entry) above, with A45P, D63E, A93E counted along it

binding result [1]: binds
binding result [2]: binds
binding result [3]: binds
binding result [4]: binds
B1: monoclonal antibody 1D3 (original, hybridoma-derived) (antibody, V domains shown)
VH: QVQLQQPGAELVKPGASVKMSCKASGYTFTSNNMHWVKQTPGQGLEWIGGLYPGNGDTSYNQKFKGKATLTADKSSSTAYMQLSSLTSGDSAVYYCARGIRDFFAMDYWGQGTSVTVSS
VL: DIQMTQSPASQSASLGESVTITCLASQTIGTWLAWYQQKPGKSPQLLIYAATSLADGVPSRFSGSGSGTKFSFKISSLQAEDFVSYYCQQLYSTPLTFGAGTKLELK

binding result [5]: binds
binding result [4]: binds
binding result [6]: binds
B2: recombinant monoclonal antibody R1D3 (antibody, V domains shown)
VH: B1 VH
VL: B1 VL

From paper PMC9704708 (Proceedings of the National Academy of Sciences of the …, 2022)
